According to paper doi:10.1101/2020.11.18.388926:

Target: T1, Fur (Pseudomonas aeruginosa, UniProt Q03456 1-134)
T1 sequence: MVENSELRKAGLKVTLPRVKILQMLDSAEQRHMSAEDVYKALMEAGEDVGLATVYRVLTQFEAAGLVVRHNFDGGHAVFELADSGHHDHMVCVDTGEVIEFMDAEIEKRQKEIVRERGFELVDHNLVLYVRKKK
Experiment: fluorescence anisotropy

B1: prrF1-30 (dsDNA)
DNA 1: GACATGGAAATGAGAATCATTATTATGTC
DNA 2: GACATAATAATGATTCTCATTTCCATGTC
- Kd: 50 ± 10 nM
